According to publication PMC5688999 (RNA, 2017):
No end group written: not given here.

What was measured:
[1] = target: T1, Mtr4-ΔN (helicase region of Mtr4, residues 81–1073) (S. cerevisiae, UniProt P47047 81-1073); assay: ITC
T1 sequence (looked up): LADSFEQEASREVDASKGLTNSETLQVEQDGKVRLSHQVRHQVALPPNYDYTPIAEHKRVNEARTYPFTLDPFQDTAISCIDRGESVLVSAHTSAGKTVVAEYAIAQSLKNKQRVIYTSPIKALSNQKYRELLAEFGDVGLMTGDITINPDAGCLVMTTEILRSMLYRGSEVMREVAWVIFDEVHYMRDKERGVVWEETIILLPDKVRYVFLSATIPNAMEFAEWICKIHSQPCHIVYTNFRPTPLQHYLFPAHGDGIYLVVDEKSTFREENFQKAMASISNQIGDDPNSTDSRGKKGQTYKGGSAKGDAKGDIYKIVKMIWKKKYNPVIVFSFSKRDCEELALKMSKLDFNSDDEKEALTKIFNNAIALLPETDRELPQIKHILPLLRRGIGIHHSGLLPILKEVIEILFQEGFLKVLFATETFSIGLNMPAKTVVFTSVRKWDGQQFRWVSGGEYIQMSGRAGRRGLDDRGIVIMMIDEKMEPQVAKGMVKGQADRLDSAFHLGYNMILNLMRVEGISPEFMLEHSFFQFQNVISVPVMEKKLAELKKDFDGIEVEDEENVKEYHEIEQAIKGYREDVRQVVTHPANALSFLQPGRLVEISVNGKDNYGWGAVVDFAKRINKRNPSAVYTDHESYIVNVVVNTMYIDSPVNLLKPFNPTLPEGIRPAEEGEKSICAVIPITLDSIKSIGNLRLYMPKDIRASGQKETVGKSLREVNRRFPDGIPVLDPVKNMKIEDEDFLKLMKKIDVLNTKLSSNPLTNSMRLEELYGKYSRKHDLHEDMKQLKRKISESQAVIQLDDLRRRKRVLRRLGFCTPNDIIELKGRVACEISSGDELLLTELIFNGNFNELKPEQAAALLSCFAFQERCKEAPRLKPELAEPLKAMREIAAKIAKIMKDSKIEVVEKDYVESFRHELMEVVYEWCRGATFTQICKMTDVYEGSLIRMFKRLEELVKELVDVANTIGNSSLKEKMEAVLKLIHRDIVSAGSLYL

[2] = target: T2, GST-tagged yeast Mtr4 short arch (GST-Mtr4^SA, residues 638–842), wild type (S. cerevisiae, UniProt P47047 638-842); assay: pull-down
T2 sequence (looked up): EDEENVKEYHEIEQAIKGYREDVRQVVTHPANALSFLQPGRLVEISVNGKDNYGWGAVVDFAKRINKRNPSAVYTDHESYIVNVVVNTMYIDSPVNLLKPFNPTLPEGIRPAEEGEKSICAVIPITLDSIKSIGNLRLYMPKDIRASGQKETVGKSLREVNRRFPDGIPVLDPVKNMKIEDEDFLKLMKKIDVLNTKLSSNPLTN

Binder	Kd [1]	binding result [2]
DALFHVDVEGDEILKNKLIKRKQIKKVLKSKEIL (domain or fragment, S. cerevisiae, UniProt Q12080 58-91, looked up) [Nop53_(prot) (Nop53 residues 58–91)]	~18 µM	–
HVNNDQLFFVDDGGNEDSQDKNEDTMDVDDEDD (domain or fragment, S. cerevisiae, UniProt P40362 78-110, looked up) [Utp18_(prot) (Utp18 residues 78–110)]	~20 µM	–
Z-tagged Nop53 (residues 48–99) (domain or fragment, S. cerevisiae, UniProt Q12080 48-99, looked up, also: Z-tagged) GTSDITSLQNDALFHVDVEGDEILKNKLIKRKQIKKVLKSKEILDAVKTNSK	–	binds
